{"source": "patent US20220273713A1", "about": "“METHOD OF INHIBITING OR ACTIVATING GAMMA DELTA T CELLS” (The University of Melbourne, priority 2019, published 2022)", "molecules": {"B1": {"name": "anti-BTN2A1 antibody 259 (antibody, V domains shown)", "VH": "EVQLLESGGGLVQPGGSLRLSCAASGFTFSSYAMQWVRQAPGKGLEWVSRIGPSGGGTMYADSVKGRFTISRDNSKNTLYLQMNSLRAEDMAVYYCARDLGGLSVLFDYWGQGTLVTVSS", "VL": "QSELTQPPSASETPGQRVTISCSGSSSNIGSNTVSWFQQLPGSAPRLLIYNDHRRPSGVPDRFSGSKSGTSASLVISGLQSQDEADYYCSAWDDSLNGVVFGGGTKLTVL"}, "B2": {"name": "human BTNL8, isoform 1, on cells (ligand, UniProt Q6UX41 18-500, looked up)", "chain": "QWQVFGPDKPVQALVGEDAAFSCFLSPKTNAEAMEVRFFRGQFSSVVHLYRDGKDQPFMQMPQYQGRTKLVKDSIAEGRISLRLENITVLDAGLYGCRISSQSYYQKAIWELQVSALGSVPLISITGYVDRDIQLLCQSSGWFPRPTAKWKGPQGQDLSTDSRTNRDMHGLFDVEISLTVQENAGSISCSMRHAHLSREVESRVQIGDTFFEPISWHLATKVLGILCCGLFFGIVGLKIFFSKFQWKIQAELDWRRKHGQAELRDARKHAVEVTLDPETAHPKLCVSDLKTVTHRKAPQEVPHSEKRFTRKSVVASQSFQAGKHYWEVDGGHNKRWRVGVCRDDVDRRKEYVTLSPDHGYWVLRLNGEHLYFTLNPRFISVFPRTPPTKIGVFLDYECGTISFFNINDQSLIYTLTCRFEGLLRPYIEYPSYNEQNGTPIVICPVTQESEKEASWQRASAIPETSNSESSSQATTPFLPRGEM", "notes": "whole, on cells; also called B7NL8"}, "B3": {"name": "antibody 253: agonistic anti-BTN2A1 antibody; VL SEQ ID NO: 148, VH SEQ ID NO: 152 (antibody, V domains shown)", "VH": "EVQLLESGGGLVQPGGSLRLSCAASGFTFSTYDMYWVRQAPGKGLEWVSYISPSGGLTTYADSVKGRFTISRDNSKNTLYLQMNSLRAEDTAVYYCARDHYDSSGRATNYYYYMDVWGKGTTVTVSS", "VL": "QSALTQPPSASGTPGQRVTLSCSGSSSNIGSNRVNWYQQLPGTAPKLLIDSNNQRPSGVPDRFSGSKSGTSASLAISGLRSEDEVFYYCAAWDDSVHGPVFGGGTMVTVL", "modifications": "amino acid sequence of the VH of antibody 253; amino acid sequence of the VL of antibody 253"}}, "key": {"[1]": {"biological_target": "'hybrid' Vγ9+Vδ1+ γδTCR (TCR #6 γ-chain paired with an irrelevant Vδ1+ chain), soluble ectodomain (human)", "sequence (TCR gamma, as listed by the source)": "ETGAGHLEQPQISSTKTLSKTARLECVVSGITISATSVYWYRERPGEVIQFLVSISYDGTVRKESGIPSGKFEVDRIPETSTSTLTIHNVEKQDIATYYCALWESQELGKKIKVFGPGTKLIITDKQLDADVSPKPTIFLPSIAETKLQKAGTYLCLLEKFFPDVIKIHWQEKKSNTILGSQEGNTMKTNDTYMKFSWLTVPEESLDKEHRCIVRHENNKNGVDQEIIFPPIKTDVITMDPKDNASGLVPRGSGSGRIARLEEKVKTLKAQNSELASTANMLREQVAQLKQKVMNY", "experiment": "surface plasmon resonance, binding at equilibrium (saturation plot with Scatchard inset, Expt. 1 and Expt. 2), soluble BTN2A1 200-3.1 µM over immobilized hybrid TCR"}, "[2]": {"biological_target": "'hybrid' Vγ9+Vδ1+ γδTCR (TCR #6 γ-chain paired with an irrelevant Vδ1+ chain), soluble ectodomain (human)", "experiment": "SPR, γδTCR ectodomain immobilized on streptavidin chip, soluble BTN2A1 200-3.1 µM, KD derived at equilibrium"}, "human BTN2A2, isoform 1": {"biological_target": "T1, human BTN2A2, isoform 1 (human, UniProt Q8WVV5 33-523)", "T1 construct": "whole, on cells", "T1 sequence (looked up)": "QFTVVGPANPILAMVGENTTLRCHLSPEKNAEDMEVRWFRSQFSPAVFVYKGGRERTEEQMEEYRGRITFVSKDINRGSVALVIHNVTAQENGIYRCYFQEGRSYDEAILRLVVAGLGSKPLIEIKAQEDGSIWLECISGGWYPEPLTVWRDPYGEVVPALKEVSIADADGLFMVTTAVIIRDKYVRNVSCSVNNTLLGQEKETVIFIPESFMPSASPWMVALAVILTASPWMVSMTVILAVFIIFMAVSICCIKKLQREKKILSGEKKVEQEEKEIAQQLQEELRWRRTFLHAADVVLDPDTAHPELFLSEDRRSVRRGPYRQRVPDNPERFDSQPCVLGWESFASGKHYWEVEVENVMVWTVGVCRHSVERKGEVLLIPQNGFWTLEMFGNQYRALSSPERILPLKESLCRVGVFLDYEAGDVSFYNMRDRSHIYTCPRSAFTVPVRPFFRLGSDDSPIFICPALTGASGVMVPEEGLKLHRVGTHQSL", "experiment": "told in the legend of FIG. 24; data in FIG. 11 (ELISA, transfected cells)", "procedure": "Purified recombinant proteins (0.2-20 μg/ml) were immobilized in microplate wells in PBS buffer overnight at 4° C. Non-specific binding was then blocked by incubation in PBS containing 0.05% tween 20 plus 5% skim milk powder or 0.5% (w/v) bovine serum albumin (BSA). The wells were then incubated for 60 minutes at room temperature in the presence of antibodies at 2-5 μg/mL in PBS/0.05% tween-20/2% skim milk powder or 0.5% BSA, followed by washing in PBS/0.05% tween-20. Plates were then incubated with HRP-labelled sheep anti-mouse IgG secondary antibody (Chemicon), or goat anti-mouse IgG secondary antibody (Millipore) followed by detection using 3,3′,5,5′-tetramethylbenzidine substrate (Sigma) and absorbance was measured at 450 nm using a plate reader."}, "[3]": {"biological_target": "T2, human BTN3A1, isoform 1, on cells (human, UniProt O00481 30-513)", "T2 construct": "whole, on cells", "T2 sequence (O00481 30-513 limits assumed)": "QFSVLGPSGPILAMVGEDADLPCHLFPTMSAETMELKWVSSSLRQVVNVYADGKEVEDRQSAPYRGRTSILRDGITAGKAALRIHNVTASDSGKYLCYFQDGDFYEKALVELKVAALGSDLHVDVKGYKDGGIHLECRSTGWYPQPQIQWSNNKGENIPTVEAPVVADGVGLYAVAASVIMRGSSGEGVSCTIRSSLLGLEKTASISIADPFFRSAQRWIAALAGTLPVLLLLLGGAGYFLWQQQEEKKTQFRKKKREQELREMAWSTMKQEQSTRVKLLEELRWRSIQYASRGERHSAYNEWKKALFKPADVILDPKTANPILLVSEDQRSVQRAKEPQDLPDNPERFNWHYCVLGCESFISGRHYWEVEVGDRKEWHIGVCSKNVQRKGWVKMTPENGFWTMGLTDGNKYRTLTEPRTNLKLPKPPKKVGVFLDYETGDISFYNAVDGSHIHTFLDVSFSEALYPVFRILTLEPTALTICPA", "experiment": "FRET between C-terminal CFP/YFP tags on co-transfected NIH-3T3 cells, flow cytometry (FIG. 5D, FIG. 20A)", "source_text": "FRET was detected in a compensated yellow 670/30 channel. […] The frequency of cells identified as FRET⁺ was examined on gated CFP⁺YFP⁺NIH-3T3 cells for dual tranfectants, and either CFP⁺ or YFP⁺ for single transfectants."}, "Vγ9Vδ2 cells [4]": {"test_system": "Vγ9Vδ2 cells", "experiment": "Flow cytometry: CD25 on Vγ9Vδ2 cells without phosphoantigen or APCs", "format": "cell-based, human", "details": "no addition of APCs or phosphoantigen; listed as 253", "description": "Vγ9Vδ2 cells were stained for CD3, Vδ2, CD25 and live dead viability dye as previously described and analysed on a Canto flow cytometer (BD). Cells were gated on lymphocytes, single cells, live cells, CD3+ Vδ2+, and activation determined based on CD25 expression."}, "Vγ9Vδ2 cells [5]": {"test_system": "Vγ9Vδ2 cells", "experiment": "Luminex (Vγ9Vδ2): cytokine/chemokine secretion by pre-expanded Vγ9Vδ2 cells", "format": "cell-based, human", "procedure": "Briefly, Vγ9Vδ2 cells were isolated from 1 healthy donor (Red Cross Australia) and 1 cancer patient derived PBMC using TCRγ/δ+ T Cell Isolation Kit (Miltenyi). Cells were stimulated for 48 hours in TCRPMI supplemented with 100u/ml IL-2, CD3 (10 μg/ml) and CD28 (1 μg/ml). Cells were washed and grown for 14 days in TCRPMI supplemented with 100u/ml IL-2 at 37 degrees C. and 5% CO2, and then frozen down. […] Vγ9Vδ2 were defrosted and rested overnight in TCRPMI supplemented with 50u/ml IL-2 at 37 degrees C. and 5% CO2. […] All samples were run with appropriate controls and standards."}, "[6]": {"test_system": "LM-MEL-62 and LM-MEL-75 melanoma cells", "experiment": "Tumor killing/inhibition assay: γδ T cells with melanoma cells 2:1, MTS and CD25", "format": "cell-based, human", "details": "γδ T cells : melanoma cells 2:1, three days, antibody 10 ug/ml", "description": "In the following experiments, γδ T cells were enriched by MACS using PE-Cy7-conjugated anti-γδTCR followed by anti-phycoerythrin-mediated magnetic bead purification (Miltenyi Biotec). After enrichment CD3^+ Vδ2^+γδ T cells were further purified by sorting using an Aria III (BD). […] LM-MEL-62 and LM-MEL-75 melanoma cells were plated out 1×10^4 per well in a 96 well flat-bottom plate In RPMI1640 media supplemented with 10% FBS and left to adhere overnight. […] All conditions were repeated in triplicate. Cells were incubated at 37 degrees and on day 3 Vd2+ cells were acquired by flow cytometry. Live cells were gated and activation determined by analysis of CD25 expression. Melanoma cell viability was determined by MTS assay. MTS reagent was added to RPMI media at a 1:5 ratio and 100 ul added per well. Cells were incubated at 37 degrees for 30 minutes and the plate was read on a Spectrostar nano plate reader at 490 nm. […] Cultures were performed with γδ T cells and melanoma cells (LM-MEL-75 or LM-MEL-62) in a 2:1 ratio."}, "γδ T cells": {"test_system": "γδ T cells", "experiment": "Identification of BTN2A1 agonistic antibodies: CD25 and interferon γ of expanded γδ T cells", "format": "cell-based, human", "details": "10 μg/ml antibody overnight, vs isotype control BM4", "description": "In some experiments γδ T cells were enriched by MACS using PE-Cy7-conjugated anti-γδTCR followed by anti-phycoerythrin-mediated magnetic bead purification (Miltenyi Biotec). After enrichment CD3+Vδ2+ γδ T cells were further purified by sorting using an Aria III (BD). Enriched γδ T cells were stimulated in vitro for 48 h with plate-bound anti-CD3ε (OKT3, 10 ug/ml, Bio-X-Cell), soluble anti-CD28 (CD28.2, 1 ug/ml, BD Pharmingen), phytohemagglutinin (0.5 μg/ml, Sigma), IL-15 (50 ng/ml), and recombinant human IL-2 (100 U/ml, PeproTech), followed by maintenance with IL-2 and IL-15 for 14-21 d. Cells were cultured in complete medium consisting of a 50:50 (v/v) mixture of RPMI-1640 and AIM-V (Invitrogen) supplemented with 10% (v/v) FCS (JRH Biosciences), penicillin (100 U/ml), streptomycin (100 μg/ml), Glutamax (2 mM), sodium pyruvate (1 mM), nonessential amino acids (0.1 mM), and HEPES buffer (15 mM), pH 7.2-7.5 (all from Invitrogen Life Technologies), plus 50 μM 2-mercaptoethanol (Sigma-Aldrich).\nThe inventors screened the panel of antibodies specific for BTN2A1, as described above, to identify those able to agonise BTN2A1. The inventors assessed the ability of anti-BTN2A1 antibodies to activate γδ T cells. The inventors assessed upregulation of CD25 on the surface of previously expanded γδ T cells following culturing the cells with 10 μg/ml anti-BTN2A1 antibodies or isotype control antibody (BM4) overnight.\nThe inventors additionally measured levels of interferon γ secreted by γδ T cells following culture in the presence of 10 μg/ml anti-BTN2A1 antibodies or isotype control antibody (BM4) overnight. Interferon γ secretion is another indicator of TCR-dependent activation."}, "[7]": {"details": "γδT cells from a healthy donor, 16 hrs, antibodies 10 μg/ml, Zoledronic acid 4 μM, HMBPP 0.5 ng/ml, duplicates, 0 set to 0.1"}, "[8]": {"details": "γδT cells from a healthy donor, 16 hrs, antibodies 10 μg/ml, Zoledronic acid 4 μM, HMBPP 0.5 ng/ml, duplicates, 0 set to 0.1, listed as 253"}, "[9]": {"details": "γδT cells from patient 1 (melanoma patient), 16 hrs, antibodies 10 μg/ml, Zoledronic acid 4 μM, HMBPP 0.5 ng/ml, duplicates, 0 set to 0.1"}, "[10]": {"details": "γδT cells from patient 1 (melanoma patient), 16 hrs, antibodies 10 μg/ml, Zoledronic acid 4 μM, HMBPP 0.5 ng/ml, duplicates, 0 set to 0.1, listed as 253"}}, "note": "Values joined by “and” are separate entries in the source; they are usually repeats but may differ in a detail not shown here. Identical values can stand only once. “Also recorded” adds a separate entry of the source."}
{"molecule": "soluble BTN2A1 ectodomain (IgV and IgC domains; Gln29 to Ser245) with C-terminal linker, Avi-tag and His6-tag (ligand)", "values": [{"measurement": "Kd", "setting": "[1]", "result": 50.4, "unit": "µM"}, {"measurement": "Kd", "setting": "[2]", "result": 50, "unit": "µM"}]}
{"molecule": "B1", "values": [{"measurement": "binding result", "setting": "human BTN2A2, isoform 1", "result": "no binding"}]}
{"molecule": "B2", "values": [{"measurement": "binding result", "setting": "[3]", "result": "no binding"}]}
{"molecule": "B3", "values": [{"measurement": "activation of Vγ9Vδ2 cells by CD25 upregulation", "setting": "Vγ9Vδ2 cells [4]", "result": "activation of Vγ9Vδ2 independent of phosphoantigen; also recorded: can mimic phosphoantigen mediated activation to various degrees"}, {"measurement": "cytokine/chemokine secretion, in words", "setting": "Vγ9Vδ2 cells [5]; across both donors", "result": "weaker stimulus"}, {"measurement": "cytokine/chemokine secretion, in words", "setting": "Vγ9Vδ2 cells [5]; cancer patient derived Vγ9Vδ2 cells, vs isotype (BM4)", "result": "No increase in any analyte"}, {"measurement": "cytokine/chemokine secretion, in words", "setting": "Vγ9Vδ2 cells [5]; healthy donor derived Vγ9Vδ2 cells, vs isotype (BM4)", "result": "only small increases in the amounts of secreted GMCSF"}, {"measurement": "ICAM-1", "setting": "Vγ9Vδ2 cells [5]; [7]", "result": 0.1, "unit": "pg/mL"}, {"measurement": "IFNγ", "setting": "Vγ9Vδ2 cells [5]; [7]", "result": 0.1, "unit": "pg/mL"}, {"measurement": "IL-4", "setting": "Vγ9Vδ2 cells [5]; [7]", "result": 0.1, "unit": "pg/mL"}, {"measurement": "IL-8", "setting": "Vγ9Vδ2 cells [5]; [7]", "result": 0.1, "unit": "pg/mL"}, {"measurement": "IL-13", "setting": "Vγ9Vδ2 cells [5]; [7]", "result": 0.1, "unit": "pg/mL"}, {"measurement": "IL-17A", "setting": "Vγ9Vδ2 cells [5]; [7]", "result": 0.1, "unit": "pg/mL"}, {"measurement": "TNFα", "setting": "Vγ9Vδ2 cells [5]; [7]", "result": 0.1, "unit": "pg/mL"}, {"measurement": "sE-selectin", "setting": "Vγ9Vδ2 cells [5]; [7]", "result": 0.1, "unit": "pg/mL"}, {"measurement": "sP-Selectin", "setting": "Vγ9Vδ2 cells [5]; [7]", "result": 0.1, "unit": "pg/mL"}, {"measurement": "MIP-1a", "setting": "Vγ9Vδ2 cells [5]; [8]", "result": "16.32 pg/mL and 19.57 pg/mL"}, {"measurement": "MIP-1b", "setting": "Vγ9Vδ2 cells [5]; [8]", "result": "117.31 pg/mL and 143.67 pg/mL"}, {"measurement": "IL-4", "setting": "Vγ9Vδ2 cells [5]; [9]", "result": 0.1, "unit": "pg/mL"}, {"measurement": "IL-8", "setting": "Vγ9Vδ2 cells [5]; [9]", "result": 0.1, "unit": "pg/mL"}, {"measurement": "IL-17A", "setting": "Vγ9Vδ2 cells [5]; [9]", "result": 0.1, "unit": "pg/mL"}, {"measurement": "TNFα", "setting": "Vγ9Vδ2 cells [5]; [9]", "result": 0.1, "unit": "pg/mL"}, {"measurement": "sP-Selectin", "setting": "Vγ9Vδ2 cells [5]; [9]", "result": 0.1, "unit": "pg/mL"}, {"measurement": "GMCSF", "setting": "Vγ9Vδ2 cells [5]; [10]", "result": "32.02 pg/mL and 33.23 pg/mL"}, {"measurement": "ICAM-1", "setting": "Vγ9Vδ2 cells [5]; [10]", "result": "480.81 pg/mL and 405.75 pg/mL"}, {"measurement": "IFNγ", "setting": "Vγ9Vδ2 cells [5]; [10]", "result": "6.87 pg/mL and 3.45 pg/mL"}, {"measurement": "IL-13", "setting": "Vγ9Vδ2 cells [5]; [10]", "result": "45.16 pg/mL and 36.92 pg/mL"}, {"measurement": "MIP-1a", "setting": "Vγ9Vδ2 cells [5]; [10]", "result": "133.36 pg/mL and 137.25 pg/mL"}, {"measurement": "MIP-1b", "setting": "Vγ9Vδ2 cells [5]; [10]", "result": "901.33 pg/mL and 941.65 pg/mL"}, {"measurement": "sE-selectin", "setting": "Vγ9Vδ2 cells [5]; [10]", "result": "142.97 pg/mL and 101.78 pg/mL"}, {"measurement": "CD25 level of expression on γδ T cells in co-culture", "setting": "[6]", "result": "upregulated"}, {"measurement": "level of secreted interferon γ", "setting": "γδ T cells", "result": "increase the level of secreted interferon γ"}, {"measurement": "percentage of γδ T cells expressing CD25", "setting": "γδ T cells", "result": "increase the percentage of γδ T cells expressing CD25"}]}
